# Laboratory results as given in publication PMC10449631 (Nature Chemical Biology, 2023).
# Values joined by “and” are separate entries in the source; they are usually repeats but may differ in a detail not shown here. Equal values may be shown once. Positions of bridges follow the written chain, without caps; N, C: chain ends. Residues, ends and D or L forms follow the SMILES beside them. No end group written: not given here.
# Legend:
# PaAP [1] = system: PaAP; set-up: method as in PMID 30894675; details: impacted the activity of PaAP in vivo; cited from earlier work
# PaAP_T [2] = biological target: T1, PaAP_T (Pseudomonas aeruginosa, UniProt Q02PA2); test: Enzymatic assay with amino acid-pNA substrates (kcat, KM); type: biochemical; details: amino acid–pNA substrate
# T1 construct: PaAP (WT, residues 27–536); His6 (TEV cleavable) (N, cleaved yes); made in house; host or cells: E. coli SHuffle T7
# Procedure: (§1) Aminopeptidase activity was determined spectrophotometrically primarily using amino Leu-pNA. Other commercially available pNA substrates (isoleucine, methionine, alanine, valine, proline, arginine, lysine and phenylalanine) were also assayed. Leu-pNA was incubated with enzyme (100 nM) in assay buffer (50 mM Tris, pH 8.5, 200 mM NaCl) at 25 °C. A pNA release caused an absorbance increase at 405 nm, monitored using a BMG Labtech plate reader. […] Data were plotted in GraphPad Prism (version 9) and the Michalis Menten equation was used for fitting.
# [3] = biological target: T2, PaAP_T (P. aeruginosa aminopeptidase, C-terminal truncated) (Pseudomonas aeruginosa, UniProt Q02PA2); test: Inhibition of PaAP_T in the Leu-pNA aminopeptidase assay (KI, IC50); type: biochemical
# T2 construct: PaAP (WT, residues 27–536); His6 (TEV cleavable) (N, cleaved yes); made in house; host or cells: E. coli SHuffle T7
# Procedure: as §1
# (§2) Inhibition assays were carried out with the following peptides: linear-ERWGHDFIK (PaAP C-terminal residues), cyclic-ERWGHDFIK, N-acetylated and C-amidated ERWGHDFIK. IC50 values were determined by varying peptide concentration at a fixed substrate concentration (fixed at KM, (S) = 2 mM, PaAP concentration was 100 nM). […] KI values were determined by fitting the data to equation (1) (Morrison’s equation):1 v=1−Et+I+KI−Et+I+KI^2−4EtIKI/2Et where v is the velocity, Et is the total enzyme concentration, I is the concentration of inhibitor and KI is the equilibrium dissociation constant for the inhibitor. IC50 values increased when measured at increasing S, consistent with competitive inhibition.
# in vitro = in vitro ADME, Pseudomonas aeruginosa; details: cells or culture medium; after 48 h growth; read-out: peptide remaining in solution
# Procedure: Supplementary Figure 19. Stability of cyclic-ERWGHDFIK
# The stability of cyclic-ERWGHDFIK was tested by incubating in LB media +/- inoculation with PA14 Pseudomonas aeruginosa. Samples were taken at set timepoints over a 48 hour time period, quenched and analysed by LC-MS. % of cyclic-ERWGHDFIK remaining was calculated by comparing integrated peak areas to the 0 time point. n=1 […]
# (1 picture or pasted object on this page, not shown here)
# PaAP [4] = test: PaAP in reaction buffer (50 mM Tris, pH 8.5, 100 mM NaCl); details: P. aeruginosa, room temperature, up to overnight
# PaAP [5] = biological target: T3, PaAP (Pseudomonas aeruginosa, UniProt Q02PA2, A513L/Q514V/S515P); test: Peptide digestion assay (overnight and time course, LC-MS/MALDI); type: biochemical; details: for P0 (parent peptide, LC–MS signal): 500 μM peptide, 1 μM PaAP_T, listed as ERWGHDFIK-NH3
# T3 construct: PaAP (WT, residues 27–536); His6 (TEV cleavable) (N, cleaved yes); made in house; host or cells: E. coli SHuffle T7
# T3 sequence (Q02PA2 37-516 A513L/Q514V/S515P): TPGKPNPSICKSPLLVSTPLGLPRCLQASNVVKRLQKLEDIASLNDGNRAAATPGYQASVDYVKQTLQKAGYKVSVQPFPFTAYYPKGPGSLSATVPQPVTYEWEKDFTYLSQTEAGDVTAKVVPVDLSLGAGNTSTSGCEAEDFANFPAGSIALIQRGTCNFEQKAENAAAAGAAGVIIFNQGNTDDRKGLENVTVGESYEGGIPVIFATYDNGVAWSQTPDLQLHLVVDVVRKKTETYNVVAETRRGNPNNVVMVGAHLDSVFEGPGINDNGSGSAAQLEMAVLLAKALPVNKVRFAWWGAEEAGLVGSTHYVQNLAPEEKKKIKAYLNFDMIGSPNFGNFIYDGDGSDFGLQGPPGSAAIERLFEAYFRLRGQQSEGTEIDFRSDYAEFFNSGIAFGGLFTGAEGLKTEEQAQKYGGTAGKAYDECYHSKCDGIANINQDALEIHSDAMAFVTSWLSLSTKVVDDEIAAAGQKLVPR
# Procedure: A variety of peptides of varying lengths and compositions were incubated with PaAP at room temperature. Assays were performed by incubating (overnight at room temperature) 500 μM of substrate (peptides) with 1 μM enzyme (PaAP) in reaction buffer (50 mM Tris, pH 8.5, 100 mM NaCl). The reactions were quenched by heating to 100 °C for 10 min followed by centrifugation at 17,000g in a benchtop centrifuge to remove precipitate. Supernatant was collected and samples were analyzed by LC–MS. Initial trial assays were carried out in the presence and absence (control) of enzyme to determine if the substrate was degraded (single or triplicate experiments). Time-course assays were performed on selected peptide substrates in triplicate. A 300 μl reaction (including 500 μM of substrate) was initiated by the addition of 1 μM enzyme. The reaction was incubated at room temperature. The reaction was quenched at set timepoints by the removal of 30 μl aliquots, which were immediately heated to 100 °C for 10 min. The samples were analyzed by LC–MS using a Xevo Q-ToF (Waters) as described below, searching for masses of all peptide breakdown products.
# Peptide degradation time courses were fitted to exponential equations as follows:
# P0 peptide consumption was fitted to a single exponential equation (equation (2)) with the format2 yt=y0−Plateaue^−kt+Plateau
# Time courses for the formation and decay of peptide intermediates were fitted to double exponential equations (equation (3)) and single exponential equations, followed by a linear phase (4)3 yt=y0−Plateau1e^−k1t+y0−Plateau2e^−k2t+Plateau 4 yt=y0−Plateaue^−kt+vt+Plateau where y(t) is the product formed at time t, y0 − Plateau is the amplitude of the exponential phase, k is the observed rate constant for the exponential phase, y0 is the value of y at time 0, Plateau is the value of y after exponential phase, C is the offset and v is the slope of the linear phase.
# Peptide samples incubated in the presence and absence of PaAP were initially analyzed by MALDI. The peptide sample (0.5 µl at 10 µM) was spotted along with matrix (0.5 µl 10 mg ml^−1 α-cyano-4-hydroxycinnamic acid in ACN/0.1% TFA (50/50, vol/vol)) on a stainless steel MALDI plate and left to dry. The sample plate was loaded into a Sciex 4800 MALDI mass spectrometer. The laser voltage was adjusted to give a good signal to noise strength, and 50 shots were acquired in a random pattern across the spot and spectra combined. The spectra were externally calibrated with Sciex Pepcal mix (range: 500–4,000 m/z).
# [6] = biological target: T4, PaAP_T (P. aeruginosa aminopeptidase, C-terminal truncated) (Pseudomonas aeruginosa, UniProt Q02PA2); test: Inhibition of PaAP_T in the Leu-pNA aminopeptidase assay (KI, IC50); type: biochemical; details: for IC50 plot data (PaAP_T activity at given peptide concentration): (S) = 2 mM, PaAP 100 nM, listed as ERWGHDFIK-NH3
# T4 construct: PaAP (WT, residues 27–536); His6 (TEV cleavable) (N, cleaved yes); made in house; host or cells: E. coli SHuffle T7
# T4 sequence (Q02PA2 whole entry, looked up): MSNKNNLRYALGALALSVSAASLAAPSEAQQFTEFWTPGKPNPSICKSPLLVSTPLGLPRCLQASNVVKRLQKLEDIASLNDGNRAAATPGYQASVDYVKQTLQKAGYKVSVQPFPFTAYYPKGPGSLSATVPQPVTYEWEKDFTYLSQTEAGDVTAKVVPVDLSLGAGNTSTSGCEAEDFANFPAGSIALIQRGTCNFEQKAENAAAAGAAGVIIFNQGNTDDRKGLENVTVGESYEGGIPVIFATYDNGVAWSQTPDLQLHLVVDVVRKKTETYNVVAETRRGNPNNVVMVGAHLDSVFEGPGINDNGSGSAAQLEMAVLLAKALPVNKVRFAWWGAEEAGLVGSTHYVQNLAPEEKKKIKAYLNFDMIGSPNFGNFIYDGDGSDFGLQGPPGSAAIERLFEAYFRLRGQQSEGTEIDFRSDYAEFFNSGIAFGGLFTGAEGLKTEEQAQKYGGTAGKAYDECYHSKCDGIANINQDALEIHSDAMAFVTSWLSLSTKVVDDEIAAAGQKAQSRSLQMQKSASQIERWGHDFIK
# Procedure: as §1, §2
# PaAP_T [7] = test: reaction buffer (50 mM Tris, pH 8.5, 100 mM NaCl), time-course assay; details: Pseudomonas aeruginosa (recombinant enzyme), room temperature, up to 1220 min
# PaAP_T [8] = test: PaAP_T in reaction buffer (50 mM Tris, pH 8.5, 100 mM NaCl), time course; details: P. aeruginosa, room temperature, up to 1220 minutes
molecule,measurement,setting,value
O=C(O)CCNC(=O)c1ccc(/N=N/c2ccc(O)c(C(=O)O)c2)cc1 [Balsalazide],effect on biofilm,PaAP [1],anti-biofilm phenotype
CC(C)C[C@H](N)C(=O)Nc1ccc([N+](=O)[O-])cc1 [Leu-pNA],kcat,PaAP_T [2],11.5 s⁻¹
NCCCC[C@H](N)C(=O)Nc1ccc([N+](=O)[O-])cc1 [Lys-pNA],kcat,PaAP_T [2],4.13 s⁻¹
CC(C)[C@H](N)C(=O)Nc1ccc([N+](=O)[O-])cc1 [Val-pNA],kcat,PaAP_T [2],0.115 s⁻¹
CC[C@H](C)[C@@H]1NC(=O)[C@H](Cc2ccccc2)NC(=O)[C@H](CC(=O)O)NC(=O)[C@H](Cc2c[nH]cn2)NC(=O)CNC(=O)[C@H](Cc2c[nH]c3ccccc23)NC(=O)[C@H](CCCNC(=N)N)NC(=O)[C@@H](N)CCC(=O)NCCCC[C@@H](C(=O)O)NC1=O [cyclic-ERWGHDFIK] (H-ERWGHDFIK-OH; lactam 1-9),Ki,[3],22.8 nM
same,remaining at 48 h,in vitro,> 60%
Ac-ERWGHDFIK,not cleaved,PaAP [4],not a substrate
ERWGHDFIK-NH2: ERWGHDFIK peptide harboring a C-terminal amide,substrate of / degraded by PaAP (words),"PaAP [5]; incubated with PaAP overnight, LC–MS or MALDI, listed as ERWEGHDFIK-NH3",good substrate
same,"P0 (parent peptide, LC–MS signal)",PaAP [5]; time 0 minutes,747781 and 703178 and 683749
same,"P0 (parent peptide, LC–MS signal)",PaAP [5]; time 5 minutes,717720 and 659374 and 657747
same,"P0 (parent peptide, LC–MS signal)",PaAP [5]; time 10 minutes,666366 and 611681 and 573626
same,"P0 (parent peptide, LC–MS signal)",PaAP [5]; time 30 minutes,456167 and 415831 and 416655
same,"P0 (parent peptide, LC–MS signal)",PaAP [5]; time 60 minutes,206401 and 213826 and 168991
same,"P0 (parent peptide, LC–MS signal)",PaAP [5]; time 90 minutes,48119.3 and 55308.2 and 38290.8
same,"P0 (parent peptide, LC–MS signal)",PaAP [5]; time 120 minutes,7764.71 and 8223.82 and 5808.71
same,"P0 (parent peptide, LC–MS signal)",PaAP [5]; time 180 minutes,323.386 and 411.426 and 320.297
same,relative rate of degradation by PaAP,"PaAP [5]; time-course assay, LC–MS",processed at a faster rate than unmodified ERWGHDFIK
same,IC50 relative to unmodified linear ERWGHDFIK,[6]; Leu-pNA assay,increased IC50 value
same,inhibition of PaAP_T,[6]; Leu-pNA assay,very poor inhibitors
same,IC50 plot data (PaAP_T activity at given peptide concentration),[6]; log(I) 0,100.509 and 101.823 and 100.804
same,IC50 plot data (PaAP_T activity at given peptide concentration),[6]; log(I) 0.39794,100.885 and 102.922 and 101.877
same,IC50 plot data (PaAP_T activity at given peptide concentration),[6]; log(I) 0.69897,100.054 and 101.233 and 108.07
same,IC50 plot data (PaAP_T activity at given peptide concentration),[6]; log(I) 1,99.2493 and 105.174 and 106.059
same,IC50 plot data (PaAP_T activity at given peptide concentration),[6]; log(I) 1.39794,96.4075 and 101.34 and 94.2091
same,IC50 plot data (PaAP_T activity at given peptide concentration),[6]; log(I) 1.69897,90.5898 and 93.2172 and 95.2547
same,IC50 plot data (PaAP_T activity at given peptide concentration),[6]; log(I) 2,71.9303 and 76.8365 and 72.5737
same,IC50 plot data (PaAP_T activity at given peptide concentration),[6]; log(I) 2.39794,36.7024 and 39.9464 and 37.7748
same,IC50 plot data (PaAP_T activity at given peptide concentration),[6]; log(I) -0.30103,101.126 and 105.737 and 97.1046
same,IC50 plot data (PaAP_T activity at given peptide concentration),[6]; log(I) -0.60206,99.866 and 101.85 and 100.456
same,IC50 plot data (PaAP_T activity at given peptide concentration),[6]; log(I) -1,101.475 and 103.619 and 100.617
same,IC50 plot data (PaAP_T activity at given peptide concentration),[6]; log(I) -1.30103,101.126 and 99.5174 and 100.483
HCATIPAFDG,fragment found,PaAP_T [7],"products from P-5, major"
same,fragment found,PaAP_T [8],"products from P-5, major"
cyclic-ERWGHDFIK cyclized by isopeptide bond,not cleaved,PaAP [4],not degraded when incubated overnight with PaAP
